Assay results reported in paper PMC4363659.
pKd: −log10 of the molar value.

How the values were obtained:
Assay in all cases: fluorescence polarization
Conditions in all cases: FP: 50 mM Tris/HCl pH 8.0, 150 mM NaCl, 1 mM TCEP, 0.1 mg/ml BSA, 0.5 nM DNA, RT 10 min, EMSA: 10 mM HEPES pH 7.5, 100 mM KCl, 5 mM MgSO4, 5% glycerol
[1] = tested on: His6::AvrBs3 (Xanthomonas campestris pv. vesicatoria)
[2] = tested on: His6::AvrBs3ΔN152-C16 (Xanthomonas campestris pv. vesicatoria)
[3] = tested on: His6::AvrBs3ΔN152 (Xanthomonas campestris pv. vesicatoria)

## E1U20 36-bp UPA20 promoter fragment (fluorescein)
[1]
  pKd: 7.63
[2]
  pKd: 6.55
[3]
  pKd: 7.00
